Laboratory results from US20200199233A1 (Regeneron, published 2020).
“And” between values parts separate entries of the source, which are not always exact repeats. Equal values may be shown once.

Key:
[1] = molecular target: T1, human CD28 on human T cells (human, UniProt P10747 19-152); experiment: flow cytometry, human CD8+ T cells
T1 construct: Endogenous CD28 on primary human CD4+ and CD8+ T cells; also called hCD28
Description: (§1) After incubation, the cells were washed twice with cold PBS containing 1% filtered FBS and a PE-conjugated or Alexa647-conjugated anti-human secondary antibody was added to the MUC16 expressing cells or Human/Cyno T cells, respectively, and incubated for an additional 30 minutes. Live/dead dye was added to Human and Cynomolgus T cells incubations. Wells containing no antibody or secondary only were used as a control.
(§2) After incubation with Human or Cynomolgus T cells, cells were washed, and stained with a cocktail of anti-CD2, ant-CD16, anti-CD4, and anti-CD8 antibodies in Brilliant Stain Buffer for an extra 20 min incubation at 4° C. After wash, cells were re-suspended in 200 μL cold PBS containing 1% filtered FBS, gated in a Live/CD2+/CD4+/CD16− or Live/CD2+/CD8+/CD16− gate and analyzed by Flow cytometry on a BD FACS LSR-Fortessa-X20.

[2] = molecular target: T2, cynomolgus CD28 on cynomolgus T cells (cynomolgus monkey, UniProt Q0PDN3 19-220); experiment: flow cytometry, cynomolgus CD8+ T cells
T2 construct: whole, on cells
Description: as §1, §2

[3] = molecular target: T1, human CD28 on human T cells; experiment: flow cytometry, human CD4+ T cells
Description: as §1, §2

[4] = molecular target: T2, cynomolgus CD28 on cynomolgus T cells; experiment: flow cytometry, cynomolgus CD4+ T cells
Description: as §1, §2

[5] = molecular target: T1, human CD28 on human T cells; experiment: cell-based or functional assay
[6] = molecular target: T1, human CD28 on human T cells; experiment: cell-based or functional assay; remark: listed apart in the source
hMUC16.mmh = molecular target: T3, hMUC16.mmh (human); experiment: SPR (Biacore), 37 C, antibody captured by anti-human Fc, hMUC16.mmh injected
T3 construct: also called hMUC16 with C-term myc-myc-6xHis tag; human MUC16 membrane proximal domain (P13810-P14451) having a myc-myc-his tag
T3 chain: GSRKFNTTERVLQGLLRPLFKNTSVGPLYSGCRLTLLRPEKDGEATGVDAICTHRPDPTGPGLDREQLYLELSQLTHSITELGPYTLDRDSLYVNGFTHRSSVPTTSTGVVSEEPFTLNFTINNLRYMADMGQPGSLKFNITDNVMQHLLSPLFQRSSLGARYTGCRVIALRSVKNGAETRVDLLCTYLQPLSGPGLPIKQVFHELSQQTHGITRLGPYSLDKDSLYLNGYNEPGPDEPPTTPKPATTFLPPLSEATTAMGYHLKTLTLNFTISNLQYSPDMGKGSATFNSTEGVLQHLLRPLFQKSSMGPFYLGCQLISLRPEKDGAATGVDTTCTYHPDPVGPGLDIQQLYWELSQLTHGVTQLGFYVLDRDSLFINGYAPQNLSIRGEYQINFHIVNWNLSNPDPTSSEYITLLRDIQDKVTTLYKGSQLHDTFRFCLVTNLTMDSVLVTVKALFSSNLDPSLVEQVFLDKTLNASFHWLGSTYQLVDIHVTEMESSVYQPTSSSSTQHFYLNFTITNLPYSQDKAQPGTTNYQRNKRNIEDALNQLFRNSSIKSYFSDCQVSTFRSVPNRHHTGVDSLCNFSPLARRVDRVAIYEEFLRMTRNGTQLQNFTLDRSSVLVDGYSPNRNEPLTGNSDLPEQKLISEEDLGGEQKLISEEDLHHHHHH
Description: (§3) The dissociation of bound hMUC16, hCD28, and mCD28 reagents was monitored for 10 minutes in HBS-ET running buffer. Association (kₐ) and dissociation (kd) rate constants were determined by fitting the real-time binding sensorgrams to a 1:1 binding model with mass transport limitation using Scrubber evaluation software version 2.0c. Binding dissociation equilibrium constants (KD) and dissociative half-lives (t½) were calculated from the kinetic rate constants as:

hCD28.mmh = molecular target: T4, hCD28.mmh (human); experiment: SPR (Biacore), 37 C, antibody captured by anti-human Fc, hCD28.mmh injected
T4 construct: also called hCD28 with C-term myc-myc-6xHis tag; human CD28 ecto domain (N19-P152) having a myc-myc-his tag
Description: as §3

B1: bs32897D (bispecific antibody, V domains shown)
VH 1: EVQLVESGGGLVQPGGSLRLSCAASGFTFSRNNMHWVRQAPGKGLEYVSGISSNGGRTYYADSVKGRFTISRDNSKNTLYLQMGGLRAADMAVYFCTRDDELLSFDYWGQGTLVTVSS
VH 2: QVQLVESGGGLVKPGGSLRLSCAASGFTFRDYSMSWIRQAPGKGLEWVSYVTFFNSAIYYADSVKGRFTISRDNAKNSLYLQMNSLRAEDTAVYYCAREREPIVGGFDYWGQGTLVTVSS
VL: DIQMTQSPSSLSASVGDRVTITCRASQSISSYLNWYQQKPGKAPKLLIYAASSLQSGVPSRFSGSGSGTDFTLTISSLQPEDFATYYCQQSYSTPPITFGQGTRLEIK
notes: also called anti-MUC16xCD28
Work on B1 yielded an EC50 [1] of 7.58 µM, an EC50 [2] of 3.02 µM and an EC50 [3] of 9.16 µM. For the same binder, the EC50 [4] was 5.7 µM, the “IL-2 release from primary human CD4+ T cells, EC50, OVCAR3 target cells, 5 nM REGN4018” value [5] was 0.000607 µM and the “IL-2 release from primary human CD4+ T cells, fold induction, OVCAR3 target cells, 5 nM REGN4018” value [5] was 5.63 fold. For the same binder, the “IL-2 release from primary human CD4+ T cells, fold induction, PEO-1 target cells, 5 nM REGN4018” value [5] was 5.22 fold, the “IL-2 release from primary human CD4+ T cells, fold induction, OVCAR3 target cells, 5 nM hIgG4 isotype control” value [6] was 1.06 fold and the “IL-2 release from primary human CD4+ T cells, fold induction, PEO-1 target cells, 5 nM hIgG4 isotype control” value [6] was 1.12 fold.

B2: bs24963D (bispecific antibody, IgG4, V domains shown)
VH 1: QVQLQESGPGLVKPSETLSLTCTVSGGSISSYYWSWIRQPPGKGLEWIGYIYYSGITHYNPSLKSRVTISVDTSKIQFSLKLSSVTAADTAVYYCARWGVRRDYYYYGMDVWGQGTTVTVSS
VH 2: EVQLVESGGGLEQPGRSLRLSCTASGFAFGDHTMSWVRQAPGKGLEWVGFIRSRAYGGTTEYAASVKGRFTISRDDSKSIAYLQMDSLKTEDTAVYYCTSGGYDSSLHYYYYYHGMDVWGRGTTVTVSS
VL: not shown
notes: Two different heavy chains pair with a common light chain; also called REGN5668; anti-MUC16xCD28
B2 gave an EC50 [1] of 0.253 µM, an EC50 [2] of 0.122 µM and an EC50 [3] of 0.261 µM. The EC50 [4] was 0.203 µM, the Kd (hMUC16.mmh) was 0.000933 µM and 0.000912 µM and the T½ (hMUC16.mmh) was 53.1 min and 28 min. For the same binder, the koff (hMUC16.mmh) was 0.000412 s⁻¹ and 0.000218 s⁻¹, the kon (hMUC16.mmh) was 441000 M⁻¹ s⁻¹ and 238000 M⁻¹ s⁻¹ and the “IL-2 release from primary human CD4+ T cells, EC50, OVCAR3 target cells, 5 nM REGN4018” value [5] was 0.000401 µM. The “IL-2 release from primary human CD4+ T cells, EC50, PEO-1 target cells, 5 nM REGN4018” value [5] was 0.000996 µM, the “IL-2 release from primary human CD4+ T cells, fold induction, OVCAR3 target cells, 5 nM REGN4018” value [5] was 5.32 fold and the “IL-2 release from primary human CD4+ T cells, fold induction, PEO-1 target cells, 5 nM REGN4018” value [5] was 10.9 fold. The “IL-2 release from primary human CD4+ T cells, fold induction, OVCAR3 target cells, 5 nM hIgG4 isotype control” value [6] was 1.33 fold, the “IL-2 release from primary human CD4+ T cells, fold induction, PEO-1 target cells, 5 nM hIgG4 isotype control” value [6] was 1.12 fold and the Kd (hCD28.mmh) was 0.165 µM. It also gave a T½ (hCD28.mmh) of 2.1 min, a koff (hCD28.mmh) of 0.00538 s⁻¹ and a kon (hCD28.mmh) of 32700 M⁻¹ s⁻¹.

B3: Parental 1 hCD28 (for bs32897D) (antibody, V domains shown)
VH: EVQLVESGGGLVQPGGSLRLSCAASGFTFSRNNMHWVRQAPGKGLEYVSGISSNGGRTYYADSVKGRFTISRDNSKNTLYLQMGGLRAADMAVYFCTRDDELLSFDYWGQGTLVTVSS
VL: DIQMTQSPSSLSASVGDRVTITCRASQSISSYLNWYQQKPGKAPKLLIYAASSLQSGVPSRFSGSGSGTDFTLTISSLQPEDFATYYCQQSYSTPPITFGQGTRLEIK
For B3, the “IL-2 release from primary human CD4+ T cells, fold induction, OVCAR3 target cells, 5 nM REGN4018” value [5] was 1.58 fold, the “IL-2 release from primary human CD4+ T cells, fold induction, PEO-1 target cells, 5 nM REGN4018” value [5] was 1.42 fold and the “IL-2 release from primary human CD4+ T cells, fold induction, OVCAR3 target cells, 5 nM hIgG4 isotype control” value [6] was 1.1 fold. For the same binder, the “IL-2 release from primary human CD4+ T cells, fold induction, PEO-1 target cells, 5 nM hIgG4 isotype control” value [6] was 1.3 fold.

B4: Parental 2 hCD28 (for bs24963D) (antibody, V domains shown)
VH: QVQLQESGPGLVKPSETLSLTCTVSGGSISSYYWSWIRQPPGKGLEWIGYIYYSGITHYNPSLKSRVTISVDTSKIQFSLKLSSVTAADTAVYYCARWGVRRDYYYYGMDVWGQGTTVTVSS
VL: not shown
For B4, the “IL-2 release from primary human CD4+ T cells, EC50, PEO-1 target cells, 5 nM REGN4018” value [5] was 0.000107 µM, the “IL-2 release from primary human CD4+ T cells, fold induction, OVCAR3 target cells, 5 nM REGN4018” value [5] was 2.46 fold and the “IL-2 release from primary human CD4+ T cells, fold induction, PEO-1 target cells, 5 nM REGN4018” value [5] was 2.05 fold. For the same binder, the “IL-2 release from primary human CD4+ T cells, fold induction, OVCAR3 target cells, 5 nM hIgG4 isotype control” value [6] was 1.12 fold and the “IL-2 release from primary human CD4+ T cells, fold induction, PEO-1 target cells, 5 nM hIgG4 isotype control” value [6] was 1.03 fold.
